How the values were obtained:
[1] = target: T1, human CD3 on T cells (Jurkat cells; human peripheral blood CD4+ and CD8+ T-cells) (human, UniProt P07766 23-207); experiment: flow cytometry on human peripheral blood CD4+ T-cells
T1 construct: whole, on cells; also called CD4T; CD4 + T
Method: (§1) Fresh human peripheral blood was taken and PBMC was isolated by Ficoll. Paque Plu (GE, 17-1440-03). PBMC was adjusted to 5×10⁵ cells/mL with 4% calf serum (Hyclone, SH30626.06), 100 μL/well was added to a 96-well U-plate, the supernatant was centrifuged off and 100 μL of gradient diluted antibody (with starting concentration of 1800 nM, 3-fold dilution, 10 gradients) was added to each well and incubated for 60 min at 4° C. 50 μL/well of Alexa Fluro647 labeled goat anti-human IgG Fc (1:300 dilution) was added to the secondary antibody, with ice bath for 20 min, and 50 μL/well PI added after washing once, incubated for 5 min, and flow cytometer (BD C6) was used for detection. The control antibody REGN5458 was synthesized and prepared according to US20200024356.

[2] = target: T1, human CD3 on T cells (Jurkat cells; …); experiment: flow cytometry on human peripheral blood CD8+ T-cells
Method: as §1

[3] = target: T2, human CD3εγ-Fc heterodimer (human); experiment: SPR (Biacore T200), antigen amine-coupled on CM5 chip, antibody as analyte, 1:1 model
T2 construct: also called human CD3εγ recombinant protein; human CD3εγ protein
T2 chain 1: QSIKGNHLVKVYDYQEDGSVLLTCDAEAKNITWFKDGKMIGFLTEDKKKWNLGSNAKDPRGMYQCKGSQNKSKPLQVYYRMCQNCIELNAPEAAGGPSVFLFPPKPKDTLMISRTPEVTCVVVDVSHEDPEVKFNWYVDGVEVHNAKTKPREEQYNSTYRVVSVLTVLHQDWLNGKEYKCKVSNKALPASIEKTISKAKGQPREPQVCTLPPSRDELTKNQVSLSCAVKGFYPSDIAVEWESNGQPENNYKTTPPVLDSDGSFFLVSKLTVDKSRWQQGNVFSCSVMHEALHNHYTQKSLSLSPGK
T2 chain 2: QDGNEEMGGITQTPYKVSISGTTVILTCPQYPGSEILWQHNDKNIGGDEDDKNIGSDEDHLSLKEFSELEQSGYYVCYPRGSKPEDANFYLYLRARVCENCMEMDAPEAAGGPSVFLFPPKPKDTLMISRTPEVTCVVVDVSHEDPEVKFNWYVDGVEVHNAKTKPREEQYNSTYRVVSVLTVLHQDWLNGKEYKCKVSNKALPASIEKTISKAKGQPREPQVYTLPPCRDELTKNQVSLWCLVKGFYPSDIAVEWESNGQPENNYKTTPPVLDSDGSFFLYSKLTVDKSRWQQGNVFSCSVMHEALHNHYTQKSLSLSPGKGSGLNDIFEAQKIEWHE
Method: 10 μg/mL human or cynomolgus monkey BCMA or CD3εγ recombinant antigen was bound to a CM5 chip (GE healthcare) by amino conjugating, while the amount of antigen bound was controlled to approximately 200 RU. After baseline plateau, gradient diluted antibodies (7 gradients of 2-fold dilutions from 10 μg/mL) were flowed through the chip at a flow rate of 30 μL/min for a binding time of 350 seconds and a dissociation time of 600 seconds. Kinetic constants were fitted using Biacore T200 evaluation software with a 1:1 binding model.

B1: BCMA × CD3 κλ004 (bispecific antibody, human IgG4 S228P, kappa, lambda)
light 1: DIVLTQSPASLAVSPGQRATITCRASKSVTTSGYSYIHWYQKKPGQPPKLLIYLASDLEAGVPARFSGSGSGTDFTLTINPVEAEDTANYYCQHSRELPWTFGQGTKVEIKRTVAAPSVFIFPPSDEQLKSGTASVVCLLNNFYPREAKVQWKVDNALQSGNSQESVTEQDSKDSTYSLSSTLTLSKADYEKHKVYACEVTHQGLSSPVTKSFNRGEC
heavy 1: QVQLVQSGSELKKPGASVKVSCKASGYIFTNFGMNWVREAPGQGLEWMGWINTYTGEQIYADGFTGRFVFSLDTSASTAYLQISSLKAEDTAVYFCARGEIYYGYDVGFVYWGQGTLVTVSSASTKGPSVFPLAPCSRSTSESTAALGCLVKDYFPEPVTVSWNSGALTSGVHTFPAVLQSSGLYSLSSVVTVPSSSLGTKTYTCNVDHKPSNTKVDKRVESKYGPPCPPCPAPEFEGGPSVFLFPPKPKDTLMISRTPEVTCVVVDVSQEDPEVQFNWYVDGVEVHNAKTKPREEQFNSTYRVVSVLTVLHQDWLNGKEYKCKVSNKGLASSIEKTISKAKGQPREPQVCTLPPSQEEMTKNQVSLSCAVKGFYPSDIAVEWESNGQPENNYKTTPPVLDSDGSFFLVSKLTVDKSRWQEGNVFSCSVMHEALHNHYTQKSLSLSLGK
light 2: QAVVTQEPSLTVSPGGTVTLTCRSSTGAVTTSNYANWVQEKPGQAPRGLIGGTNKRAPWTPARFSGSLLGGKAALTITGAQAEDEAEYYCVLWYSNLWVFGGGTKLTVLGQPKAAPSVTLFPPSSEELQANKATLVCLISDFYPGAVTVAWKADSSPVKAGVETTTPSKQSNNKYAASSYLSLTPEQWKSHRSYSCQVTHEGSTVEKTVAPTECS
heavy 2: EVQLVESGGGLVQPGGSLRLSCAASGFTFNTYAMNWVRKAPGKGLEWVGRIRSKYNNYATYYADSVKDRFTISRDDSKNSLYLQMNSLKTEDTAVYYCVRHGNFGNSYVSWFAYWGQGTLVTVSSASTKGPSVFPLAPCSRSTSESTAALGCLVKDYFPEPVTVSWNSGALTSGVHTFPAVLQSSGLYSLSSVVTVPSSSLGTKTYTCNVDHKPSNTKVDKRVESKYGPPCPPCPAPEFEGGPSVFLFPPKPKDTLMISRTPEVTCVVVDVSQEDPEVQFNWYVDGVEVHNAKTKPREEQFNSTYRVVSVLTVLHQDWLNGKEYKCKVSNKGLASSIEKTISKAKGQPREPQVYTLPPCQEEMTKNQVSLWCLVKGFYPSDIAVEWESNGQPENNYKTTPPVLDSDGSFFLYSKLTVDKSRWQEGNVFSCSVMHEALHNHYTQKSLSLSLGK
notes: also called BCMA×CD3 κλ bispecific antibody
[1]
  EC50: 79 nM
[2]
  EC50: 67 nM
[3]
  Kd: 32 nM
